Measurements taken from article doi:10.1101/058016.
pKd: −log10 of the molar value.

Key:
[1] = target: PDZ1 of PSD-95 (residues 61-151), soluble recombinant domain (murine) (UniProt Q62108); experiment: SPR
[2] = target: PDZ3 of PSD-95 (residues 302-402), soluble recombinant domain (murine) (UniProt Q62108); experiment: SPR
[3] = target: calmodulin (CaM), used with Ca2+ (UniProt P0DP23); experiment: SPR
[4] = target: calmodulin on CaM-Sepharose 4B (UniProt P0DP23); experiment: pull-down
[5] = target: PDZ123 of PSD-95 (residues 61-403), soluble recombinant fragment with all three PDZ domains (murine) (UniProt Q62108); experiment: SPR
[6] = target: PDZ123 (PSD-95 residues 61-402)-HaloTag fusion on HaloLink resin (murine) (UniProt Q62108); experiment: pull-down

“r-synGAP (soluble recombinant synGAP, residues 103-1293 of synGAP A1-α1) (domain or fragment)” showed a pKd [1] of 6.85, a pKd [2] of 6.14 and a pKd [3] of 8.05. The pKd [4] was 7.51.
r-synGAP S1283D (domain or fragment) was tested, and the fold increase of KDapp over wild-type r-synGAP [5] was 4 fold and the percent reduction of binding relative to wild-type [6] was 50%.
For “r-synGAP phosphorylated by CaMKII (domain or fragment)”, the fold increase of KDapp over unphosphorylated r-synGAP [5] was 10 fold.
“sr-synGAP (C-terminal truncated synGAP, residues 103-725 of synGAP A1-α1) (domain or fragment)” gave a pKd [4] of 6.68.
